{
  "source": "patent US9526766B2",
  "about": "“Potentiation of antibiotic treatment with a protein-lipid complex” (priority 2012, dated 2016)",
  "key": {"[1]": {"tested_on": "MRSA strain NRS 384", "assay": "Methicillin resistance development under stepwise methicillin exposure", "format": "cell-based", "conditions": "Staphylococcus aureus, read-out: Methicillin MIC after adaptation, NRS 384", "source_text": "ALAFAC and Methicillin Resistance Development. Experiments were designed to test the impact of ALAFAC on the adaptation of MRSA to methicillin in liquid cultures, and to test ALAFAC's potential to inhibit resistance increase during antibiotic pressure. […]"}, "[2]": {"tested_on": "Staphylococci", "assay": "Membrane integrity assays (propidium iodide, ATP, A260 leakage)", "format": "cell-based, Staphylococcus aureus", "conditions": "S. aureus; data not shown", "procedure": "Membrane Integrity Assays. To evaluate the effect of […] on membrane integrity, Staphylococci were exposed to […] and antibacterial agents at indicated concentrations for 50 minutes at 37° C. in PBS. The detergent Triton X-100 (0.1%) was used as a control, known to cause extensive membrane rupture. After treatment the leakage of soluble components (DNA RNA and protein) were measured from supernatant obtained after centrifugation of the bacterial suspension at 13,000×g for 5 min, by measuring the absorbance at 260 nm in a BioTek Synergy 2 plate reader with the Take3 microdrop addition (Biotek). Cellular release of the small molecule ATP (MW 507) that was measured from the same supernatants using the ATP determining kit (Invitrogen), which measures the luminescence of oxyluciferin produced from the oxidation of luciferin by luficerase, a process that requires ATP degradation. […] Where applicable, independent readings were also taken in the presence of antibacterial agents alone to enable corrections for potential background leakage."}, "[3]": {"tested_on": "NRS 384 Staphylococci", "assay": "Intracellular pH measurement (BCECF-AM)", "format": "cell-based, Staphylococcus aureus", "conditions": "ALAFAC 100 μg/mL (6 μM), RuR 30 μM, Amiloride 1 mM", "source_text": "Intracellular pH measurement. A reported protocol for intracellular pH (pHi) measurement was modified and optimized for S. aureus by testing the effect of various dye concentrations and staining times on the measured fluorescence of S. aureus isolate NRS 384 grown to mid-log phase. Cell samples were subjected to increasing concentrations of the membrane-permeant acetoxymehtyl (AM) ester derivative of the dual-excitation ratiometric pH indicator dye BCECF (2′,7′-bis-(2-carboxyethyl)-5-(and-6)-carboxyfluorescein), for 30 minutes at 30° C. Fluorescence was measured as a ratio of fluorescence at 530 nm with dual wavelength excitation at 490 and 440 nm and calibration curves were established for each independent experiment. After testing a number of loading concentrations we observed that the fluorescence ratios remains generally constant when concentrations above 20 μM was used. Therefore 25 μM BCECF-AM was used for all experiments. The optimized staining time, 30 minutes, was determined using the same criteria and was used for all experiments. After loading, the cells were washed twice in PBS by centrifugation and the resulting pellet was resuspended in PBS to the original volume and ALAFAC and ALAFAC/antibiotic combinations were added. CCCP was added as a positive control. CCCP is a lipophilic weak acid that is soluble in the lipid domain of the membrane in both the protonated and deprotonated form. This allows it to act as a protonophore causing an influx of H^+ into the cytoplasm, dissipating both the electrical potential and the H^+ gradient across the inner membrane. For each experiment calibration was performed where cells were resuspended in high [K^+] buffers at different pH values ranging from 6.5 to 8.0."}, "[4]": {"tested_on": "Staphylococci", "assay": "Bactericidal activity of ALAFAC alone", "format": "cell-based"}, "[5]": {"tested_on": "Escherichia coli", "assay": "Bactericidal activity of ALAFAC alone", "format": "cell-based"}, "[6]": {"tested_on": "Bacillus subtilis", "conditions": "concentrations up to 5 mg/ml; cited from earlier work"}, "[7]": {"tested_on": "Moraxella catarrhalis", "conditions": "2 mg/ml; cited from earlier work"}},
  "note": "Read-outs that look alike come from different tables or passages of the source.",
  "data": [
    {"molecule": "COc1cccc(OC)c1C(=O)N[C@@H]1C(=O)N2[C@@H]1SC(C)(C)[C@@H]2C(=O)O", "note": "[Methicillin, methicillin]", "values": [
      {"measurement": "MIC", "setting": "[1]; 8 cycles with increasing methicillin, no ALAFAC", "value": 512, "unit": "µg/mL"},
      {"measurement": "MIC", "setting": "[1]; 10 cycles in methicillin plus ALAFAC 100 μg/mL (6 μM), MIC tested without ALAFAC", "value": 64, "unit": "µg/mL"}
    ]},
    {"molecule": "ALAFAC: non-covalent complex of alpha-lactalbumin and fatty acid (oleic acid); labeled HAMLET or HL in drawings and tables (protein, UniProt P00709 20-142, looked up, complexed with oleic acid) Alpha-lactalbumin: KQFTKCELSQLLKDIDGYGGIALPELICTMFHTSGYDTQAIVENNESTEYGLFQISNKLWCKSSQVPQSRNICDISCDKFLDDDITDDIMCAKKILDIKGIDYWLAHKALCTEKLEQWLCEKL", "values": [
      {"measurement": "Membrane damage (propidium iodide staining; leakage of ATP, DNA, RNA)", "setting": "[2]", "value": "no membrane damage"},
      {"measurement": "Transmembrane proton gradient (intracellular pH)", "setting": "[3]", "value": "effectively dissipated the proton gradient"},
      {"measurement": "Concentration of ALAFAC not triggering death", "setting": "[4]", "value": "exceeding 1,000 μg/ml"},
      {"measurement": "Concentration of ALAFAC not triggering death", "setting": "[5]", "value": "exceeding 1,000 μg/ml"},
      {"measurement": "Bactericidal activity", "setting": "[6]", "value": "no detectable activity"},
      {"measurement": "Reduction of bacteria", "setting": "[7]", "value": "less than 90%"}
    ]}
  ]
}
